From article PMC11911456, “Investigating synthetic lethality and PARP inhibitor resistance in pancreatic cancer through enantiomer differential activity” (Cell Death Discovery, 2025)

Target: T1, human RAD51 protein (human, UniProt Q06609-1 1-339)
T1 construct: RAD51 recombinase, human, NP_002866, bought from Creative Biomart; This is the RAD51 of the ELISA; source: bought: Creative Biomart
T1 sequence (looked up): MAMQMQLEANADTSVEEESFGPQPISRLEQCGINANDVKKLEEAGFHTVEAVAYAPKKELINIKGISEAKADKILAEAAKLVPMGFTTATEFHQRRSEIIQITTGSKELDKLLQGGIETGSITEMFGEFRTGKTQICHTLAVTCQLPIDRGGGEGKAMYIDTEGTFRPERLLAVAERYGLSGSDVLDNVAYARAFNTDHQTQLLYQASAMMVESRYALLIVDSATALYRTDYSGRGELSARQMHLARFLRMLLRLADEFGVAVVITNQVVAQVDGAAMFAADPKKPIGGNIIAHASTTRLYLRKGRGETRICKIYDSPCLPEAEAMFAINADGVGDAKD
Experiment: ELISA; competitive ELISA; BRC4-biotinylated peptide coated on 384-well plates, blocked with 1% BSA/PBS-T, overnight hybridisation with human RAD51; small-molecule compounds added 0.01-100 uM at constant 1% DMSO; detection with anti-RAD51 and HRP-secondary antibodies
Details: both partners purified

binding result: binds
B1: BRC4-biotinylated peptide (peptide)
peptide: KEPTLLGFHTASGKKVKIAKESLDKVKNLFDEKEQ
modifications: biotin on the N-terminus
notes: BRC4 repeat of BRCA2; holds the FxxA motif (BRCA2 residues 1524-1527) and the LFDE motif (BRCA2 residues 1545-1548) as numbered in the introduction; also called biotinylated BRC4 peptide; BRC4 peptide; source: bought: Life Technologies
